One data set concerns COc1ccc2[nH]cc(CCN)c2c1. As to the kind of experiment: purified protein. The settings on record: acetyl-CoA 0.5 mM co-substrate, 100 mM potassium phosphate, pH 8.8 (or varying pH), 55 °C (general assay).
For another data set, the system named is NCCc1c[nH]c2ccc(O)cc12. As to the kind of experiment: purified protein. The conditions noted are these: acetyl-CoA 0.5 mM co-substrate, 100 mM potassium phosphate, pH 8.8 (or varying pH), 55 °C (general assay).

With “SlSNAT (Stylonychia lemnae serotonin N-acetyltransferase) (Stylonychia lemnae)”, the Km (commonly the concentration of substrate that gives half-maximal velocity) with COc1ccc2[nH]cc(CCN)c2c1 is listed as 246 µM; in the data set with NCCc1c[nH]c2ccc(O)cc12, 776 µM.

The values above are taken from PMC11505474, “Functional Characterization of the Ciliate Stylonychia lemnae Serotonin N-Acetyltransferase, a Pivotal Enzyme in Melatonin Biosynthesis and Its Overexpression Leads to Peroxidizing Herbicide Tolerance in Rice” (Antioxidants, 2024).
